The supplement of paper PMC9112550, “Optimization of the antimicrobial peptide Bac7 by deep mutational scanning” (BMC Biology, 2022)

Test system: Escherichia coli TOP10
Assay: shrunken log2 fold change of peptide-encoding DNA abundance (4.5 h post-induction vs induction); higher = less antimicrobial activity (less host growth inhibition)
Details: time post-induction: 4.5 h; library: site-saturation at positions 5, 18, 19, 20
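Also: peptides expressed intracellularly from a pBAD plasmid library in pooled LB shake-flask culture, induced with 0.3% L-arabinose, DNA abundance read by NGS, three biological replicates, DESeq2 with apeglm shrinkage.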

Sequence	shrunken log2 fold change
RRIRWRPPRLPRPRPRPMHSPRP	-0.0572
RRIRCRPPRLPRPRPRPNIMPRP	-0.896
RRIRPRPPRLPRPRPRPWALPRP	-0.0895
RRIRKRPPRLPRPRPRPDPPPRP	0.927
RRIRWRPPRLPRPRPRPIETPRP	0.0333
RRIRIRPPRLPRPRPRPQLWPRP	0.575
RRIRMRPPRLPRPRPRPAKSPRP	0.261
RRIRRRPPRLPRPRPRPWDGPRP	0.399
RRIRERPPRLPRPRPRPLKSPRP	-0.169
RRIRLRPPRLPRPRPRPTQKPRP	0.194
RRIRGRPPRLPRPRPRPSFVPRP	0.0328
RRIRDRPPRLPRPRPRPMWGPRP	-0.0471
RRIRERPPRLPRPRPRPHSMPRP	-0.126
RRIRARPPRLPRPRPRPDLKPRP	0.523
RRIRERPPRLPRPRPRPHIEPRP	0.0737
RRIRARPPRLPRPRPRPEMIPRP	0.0273
RRIRVRPPRLPRPRPRPYDTPRP	1.6
RRIRDRPPRLPRPRPRPTITPRP	0.0537
RRIRHRPPRLPRPRPRPSILPRP	-0.464
RRIRPRPPRLPRPRPRPSNGPRP	-0.113
RRIRWRPPRLPRPRPRPAEIPRP	0.107
RRIRSRPPRLPRPRPRPVPMPRP	1.32
RRIRERPPRLPRPRPRPIVCPRP	-0.022
RRIRERPPRLPRPRPRPNCPPRP	-0.409
RRIRCRPPRLPRPRPRPYPVPRP	-0.441

Sequence	shrunken log2 fold change
RRIRPRPPRLPRPRPRPEPTPRP	0.416
RRIRQRPPRLPRPRPRPASEPRP	-0.019
RRIRWRPPRLPRPRPRPQPEPRP	0.139
RRIRYRPPRLPRPRPRPVPAPRP	-0.156
RRIRGRPPRLPRPRPRPILSPRP	0.516
RRIRDRPPRLPRPRPRPGYEPRP	-0.0119
RRIRERPPRLPRPRPRPHLVPRP	-0.125
RRIRYRPPRLPRPRPRPKKNPRP	-0.231
RRIRYRPPRLPRPRPRPRAPPRP	0.271
RRIRERPPRLPRPRPRPINIPRP	-0.973
RRIRHRPPRLPRPRPRPAEDPRP	0.262
RRIRSRPPRLPRPRPRPNNIPRP	-0.564
RRIRWRPPRLPRPRPRPTTIPRP	0.127
RRIRWRPPRLPRPRPRPPSLPRP	0.115
RRIRNRPPRLPRPRPRPFARPRP	-0.113
RRIRGRPPRLPRPRPRPMNCPRP	0.0167
RRIRLRPPRLPRPRPRPRSKPRP	-0.111
RRIRIRPPRLPRPRPRPFQKPRP	-0.0135
RRIRQRPPRLPRPRPRPYWHPRP	-0.317
RRIRFRPPRLPRPRPRPGMIPRP	-0.224
RRIRERPPRLPRPRPRPNVCPRP	-0.382
RRIRIRPPRLPRPRPRPMHLPRP	-0.22
RRIRIRPPRLPRPRPRPFVMPRP	-0.275
RRIRARPPRLPRPRPRPHNEPRP	-0.258
RRIRTRPPRLPRPRPRPGDWPRP	0.73

Sequence	shrunken log2 fold change
RRIRGRPPRLPRPRPRPCNGPRP	-0.199
RRIRQRPPRLPRPRPRPWAGPRP	0.0868
RRIRVRPPRLPRPRPRPRVYPRP	-0.587
RRIRRRPPRLPRPRPRPWSVPRP	0.0267
RRIRMRPPRLPRPRPRPHSCPRP	0.0321
RRIRSRPPRLPRPRPRPIKSPRP	0.041
RRIRVRPPRLPRPRPRPNDHPRP	-0.302
RRIRSRPPRLPRPRPRPEQCPRP	-0.00373
RRIRSRPPRLPRPRPRPHHWPRP	-0.221
RRIRNRPPRLPRPRPRPNTSPRP	-0.0898
RRIRARPPRLPRPRPRPLKRPRP	0.37
RRIRYRPPRLPRPRPRPGTPPRP	1.16
RRIRPRPPRLPRPRPRPNTAPRP	-0.23
RRIRWRPPRLPRPRPRPLVHPRP	-0.11
RRIRRRPPRLPRPRPRPSGDPRP	0.233
RRIRRRPPRLPRPRPRPYCRPRP	-0.503
RRIRFRPPRLPRPRPRPTCMPRP	-0.0546
RRIRIRPPRLPRPRPRPNNWPRP	-0.535
RRIRWRPPRLPRPRPRPGVPPRP	0.184
RRIRQRPPRLPRPRPRPINAPRP	-0.116
RRIRYRPPRLPRPRPRPICLPRP	-0.219
RRIRTRPPRLPRPRPRPHQTPRP	-0.0425
RRIRPRPPRLPRPRPRPLITPRP	-0.357
RRIRLRPPRLPRPRPRPHMDPRP	-0.549
RRIRCRPPRLPRPRPRPDDPPRP	0.0647

Sequence	shrunken log2 fold change
RRIRNRPPRLPRPRPRPPADPRP	0.595
RRIRMRPPRLPRPRPRPRIDPRP	0.0569
RRIRTRPPRLPRPRPRPPKHPRP	0.157
RRIRVRPPRLPRPRPRPVCWPRP	0.472
RRIRMRPPRLPRPRPRPPRQPRP	1.43
RRIRERPPRLPRPRPRPKTLPRP	-0.185
RRIRYRPPRLPRPRPRPNYFPRP	-1.69
RRIRARPPRLPRPRPRPATSPRP	0.461
RRIRDRPPRLPRPRPRPPWPPRP	0.654
RRIRGRPPRLPRPRPRPHYLPRP	-0.295
RRIRKRPPRLPRPRPRPRMTPRP	0.635
RRIRSRPPRLPRPRPRPGHNPRP	-0.433
RRIRGRPPRLPRPRPRPRYKPRP	0.247
RRIRARPPRLPRPRPRPMGKPRP	0.472
RRIRHRPPRLPRPRPRPNLKPRP	-0.465
RRIRVRPPRLPRPRPRPSENPRP	0.0175
RRIRCRPPRLPRPRPRPAYEPRP	-0.28
RRIRVRPPRLPRPRPRPRATPRP	0.114
RRIRYRPPRLPRPRPRPIPHPRP	0.046
RRIRDRPPRLPRPRPRPRDHPRP	0.0411
RRIRSRPPRLPRPRPRPEYYPRP	0.0495
RRIRTRPPRLPRPRPRPLKTPRP	-0.0866
